Values of other authors in US9770419B2, “Methods and compositions of camel derived products” (priority 2012, dated 2017).

Experiments:
HCV (genotype 4a) = settings: compared with human, bovine and sheep lactoferrin
[1] = system: colon cancer cell line, HCT-116; settings: in vitro

B1: Camel Lactoferrin: iron containing protein, molecular mass 76-80 kDa, 689 amino acids residues, isolated from camel milk (protein, UniProt Q9TUM0 20-708, looked up)
Lactotransferrin: ASKKSVRWCTTSPAESSKCAQWQRRMKKVRGPSVTCVKKTSRFECIQAISTEKADAVTLDGGLVYDAGLDPYKLRPIAAEVYGTENNPQTHYYAVAIAKKGTNFQLNQLQGLKSCHTGLGRSAGWNIPMGLLRPFLDWTGPPEPLQKAVAKFFSASCVPCVDGKEYPNLCQLCAGTGENKCACSSQEPYFGYSGAFKCLQDGAGDVAFVKDSTVFESLPAKADRDQYELLCPNNTRKPVDAFQECHLARVPSHAVVARSVNGKEDLIWKLLVKAQEKFGRGKPSGFQLFGSPAGQKDLLFKDSALGLLRISSKIDSGLYLGSNYITAIRGLRETAAEVELRRAQVVWCAVGSDEQLKCQEWSRQSNQSVVCATASTTEDCIALVLKGEADALSLDGGYIYIAGKCGLVPVLAESQQSPESSGLDCVHRPVKGYLAVAVVRKANDKITWNSLRGKKSCHTAVDRTAGWNIPMGLLSKNTDSCRFDEFLSQSCAPGSDPRSKLCALCAGNEEGQNKCVPNSSERYYGYTGAFRCLAENVGDVAFVKDVTVLDNTDGKNTEQWAKDLKLGDFELLCLNGTRKPVTEAESCHLAVAPNHAVVSRIDKVAHLEQVLLRQQAHFGRNGRDCPGKFCLFQSKTKNLLFNDNTECLAKLQGKTTYEEYLGPQYVTAIAKLRRCSTSPLLEACAFLMR
In the case of B1, the DNA damage (DNA damage) is given as “inhibit”, the antioxidant activities (DNA damage) is given as “exhibits antioxidant activities” and the “inhibitory effect on HCV” value (HCV (genotype 4a)) is given as “higher than human, bovine and sheep lactoferrin”. The “proliferation of HCT-116” value [1] was “inhibit the proliferation”.
